# Source: the supplement of paper PMC10266784
# B1: library; numbered along this chain (parent)
# chain: MAAAAAAAAEQQSSNGPVKKSMREKAVERRSVNKEHNSNFKAGYIPIDEDRLHKTGLRGRKGNLAICVIILLFILAVINLIITLVIWAVIRIGPNGCDSMEFHESGLLRFKQVSDMGVIHPLYKSTVGGRRNENLVITGNNQPIVFQQGTTKLSVENNKTSITSDIGMQFFDPRTQNILFSTDYETHEFHLPSGVKSLNVQKASTERITSNATSDLNIKVDGRAIVRGNEGVFIMGKTIEFHMGGNMELKAENSIILNGSVMVSTTRLPSSSSGDQLGSGDWVRYKLCMCADGTLFKVQVTSQNMGCQISDNPCGNTH
# Variants of: B1
# Experiment: SGCB cell-surface expression functional score (HA stain, bin4 vs bin1, normalised to synonymous) (log10 ratio); higher = more cell-surface SGCB (functional)
# Summary of the method: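 Codon-saturation libraries of HA-tagged, YFP-fused human beta-sarcoglycan were lentivirally transduced at MOI <0.1 into HEK293 cells stably expressing alpha-, gamma- and delta-sarcoglycan. YFP-positive cells were sorted after 72 hours, grown 5–7 days, stained on ice with Alexa Fluor 647 anti-HA, fixed, sorted into four 5% intensity bins and amplicon-sequenced. The functional score is the log ratio of highest-bin to lowest-bin variant frequency, taken as the median over codons and duplicate transductions. Synonymous variants were scaled per section to mean 0, SD 0.5.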
row,Variant,SGCB cell-surface expression functional score (log10)
1,MAAAAAAAAEQQSSNGPVKKSMREKAVERRSVNKEHNSNFKAGYIPIVEDRLHKTGLRGRKGNLAICVIILLFILAVINLIITLVIWAVIRIGPNGCDSMEFHESGLLRFKQVSDMGVIHPLYKSTVGGRRNENLVITGNNQPIVFQQGTTKLSVENNKTSITSDIGMQFFDPRTQNILFSTDYETHEFHLPSGVKSLNVQKASTERITSNATSDLNIKVDGRAIVRGNEGVFIMGKTIEFHMGGNMELKAENSIILNGSVMVSTTRLPSSSSGDQLGSGDWVRYKLCMCADGTLFKVQVTSQNMGCQISDNPCGNTH [D48V],0.07
2,MAAAAAAAAEQQSSNGPVKKSMREKAVERRSVNKEHNSNFKAGYIPISEDRLHKTGLRGRKGNLAICVIILLFILAVINLIITLVIWAVIRIGPNGCDSMEFHESGLLRFKQVSDMGVIHPLYKSTVGGRRNENLVITGNNQPIVFQQGTTKLSVENNKTSITSDIGMQFFDPRTQNILFSTDYETHEFHLPSGVKSLNVQKASTERITSNATSDLNIKVDGRAIVRGNEGVFIMGKTIEFHMGGNMELKAENSIILNGSVMVSTTRLPSSSSGDQLGSGDWVRYKLCMCADGTLFKVQVTSQNMGCQISDNPCGNTH [D48S],0.3
3,MAAAAAAAAEQQSSNGPVKKSMREKAVERRSVNKEHNSNFKAGYIPIWEDRLHKTGLRGRKGNLAICVIILLFILAVINLIITLVIWAVIRIGPNGCDSMEFHESGLLRFKQVSDMGVIHPLYKSTVGGRRNENLVITGNNQPIVFQQGTTKLSVENNKTSITSDIGMQFFDPRTQNILFSTDYETHEFHLPSGVKSLNVQKASTERITSNATSDLNIKVDGRAIVRGNEGVFIMGKTIEFHMGGNMELKAENSIILNGSVMVSTTRLPSSSSGDQLGSGDWVRYKLCMCADGTLFKVQVTSQNMGCQISDNPCGNTH [D48W],0.22
4,MAAAAAAAAEQQSSNGPVKKSMREKAVERRSVNKEHNSNFKAGYIPITEDRLHKTGLRGRKGNLAICVIILLFILAVINLIITLVIWAVIRIGPNGCDSMEFHESGLLRFKQVSDMGVIHPLYKSTVGGRRNENLVITGNNQPIVFQQGTTKLSVENNKTSITSDIGMQFFDPRTQNILFSTDYETHEFHLPSGVKSLNVQKASTERITSNATSDLNIKVDGRAIVRGNEGVFIMGKTIEFHMGGNMELKAENSIILNGSVMVSTTRLPSSSSGDQLGSGDWVRYKLCMCADGTLFKVQVTSQNMGCQISDNPCGNTH [D48T],-0.04
5,MAAAAAAAAEQQSSNGPVKKSMREKAVERRSVNKEHNSNFKAGYIPIYEDRLHKTGLRGRKGNLAICVIILLFILAVINLIITLVIWAVIRIGPNGCDSMEFHESGLLRFKQVSDMGVIHPLYKSTVGGRRNENLVITGNNQPIVFQQGTTKLSVENNKTSITSDIGMQFFDPRTQNILFSTDYETHEFHLPSGVKSLNVQKASTERITSNATSDLNIKVDGRAIVRGNEGVFIMGKTIEFHMGGNMELKAENSIILNGSVMVSTTRLPSSSSGDQLGSGDWVRYKLCMCADGTLFKVQVTSQNMGCQISDNPCGNTH [D48Y],0.4
6,MAAAAAAAAEQQSSNGPVKKSMREKAVERRSVNKEHNSNFKAGYIPIREDRLHKTGLRGRKGNLAICVIILLFILAVINLIITLVIWAVIRIGPNGCDSMEFHESGLLRFKQVSDMGVIHPLYKSTVGGRRNENLVITGNNQPIVFQQGTTKLSVENNKTSITSDIGMQFFDPRTQNILFSTDYETHEFHLPSGVKSLNVQKASTERITSNATSDLNIKVDGRAIVRGNEGVFIMGKTIEFHMGGNMELKAENSIILNGSVMVSTTRLPSSSSGDQLGSGDWVRYKLCMCADGTLFKVQVTSQNMGCQISDNPCGNTH [D48R],-0.06
7,MAAAAAAAAEQQSSNGPVKKSMREKAVERRSVNKEHNSNFKAGYIPIDDDRLHKTGLRGRKGNLAICVIILLFILAVINLIITLVIWAVIRIGPNGCDSMEFHESGLLRFKQVSDMGVIHPLYKSTVGGRRNENLVITGNNQPIVFQQGTTKLSVENNKTSITSDIGMQFFDPRTQNILFSTDYETHEFHLPSGVKSLNVQKASTERITSNATSDLNIKVDGRAIVRGNEGVFIMGKTIEFHMGGNMELKAENSIILNGSVMVSTTRLPSSSSGDQLGSGDWVRYKLCMCADGTLFKVQVTSQNMGCQISDNPCGNTH [E49D],0.02
8,MAAAAAAAAEQQSSNGPVKKSMREKAVERRSVNKEHNSNFKAGYIPIDCDRLHKTGLRGRKGNLAICVIILLFILAVINLIITLVIWAVIRIGPNGCDSMEFHESGLLRFKQVSDMGVIHPLYKSTVGGRRNENLVITGNNQPIVFQQGTTKLSVENNKTSITSDIGMQFFDPRTQNILFSTDYETHEFHLPSGVKSLNVQKASTERITSNATSDLNIKVDGRAIVRGNEGVFIMGKTIEFHMGGNMELKAENSIILNGSVMVSTTRLPSSSSGDQLGSGDWVRYKLCMCADGTLFKVQVTSQNMGCQISDNPCGNTH [E49C],0.3
9,MAAAAAAAAEQQSSNGPVKKSMREKAVERRSVNKEHNSNFKAGYIPIDADRLHKTGLRGRKGNLAICVIILLFILAVINLIITLVIWAVIRIGPNGCDSMEFHESGLLRFKQVSDMGVIHPLYKSTVGGRRNENLVITGNNQPIVFQQGTTKLSVENNKTSITSDIGMQFFDPRTQNILFSTDYETHEFHLPSGVKSLNVQKASTERITSNATSDLNIKVDGRAIVRGNEGVFIMGKTIEFHMGGNMELKAENSIILNGSVMVSTTRLPSSSSGDQLGSGDWVRYKLCMCADGTLFKVQVTSQNMGCQISDNPCGNTH [E49A],0.29
10,MAAAAAAAAEQQSSNGPVKKSMREKAVERRSVNKEHNSNFKAGYIPIDFDRLHKTGLRGRKGNLAICVIILLFILAVINLIITLVIWAVIRIGPNGCDSMEFHESGLLRFKQVSDMGVIHPLYKSTVGGRRNENLVITGNNQPIVFQQGTTKLSVENNKTSITSDIGMQFFDPRTQNILFSTDYETHEFHLPSGVKSLNVQKASTERITSNATSDLNIKVDGRAIVRGNEGVFIMGKTIEFHMGGNMELKAENSIILNGSVMVSTTRLPSSSSGDQLGSGDWVRYKLCMCADGTLFKVQVTSQNMGCQISDNPCGNTH [E49F],0.11
